The target in this assay is human GLP-2 Receptor (human) (UniProt O95838).
UniProt O95838, sequence (O95838 whole entry): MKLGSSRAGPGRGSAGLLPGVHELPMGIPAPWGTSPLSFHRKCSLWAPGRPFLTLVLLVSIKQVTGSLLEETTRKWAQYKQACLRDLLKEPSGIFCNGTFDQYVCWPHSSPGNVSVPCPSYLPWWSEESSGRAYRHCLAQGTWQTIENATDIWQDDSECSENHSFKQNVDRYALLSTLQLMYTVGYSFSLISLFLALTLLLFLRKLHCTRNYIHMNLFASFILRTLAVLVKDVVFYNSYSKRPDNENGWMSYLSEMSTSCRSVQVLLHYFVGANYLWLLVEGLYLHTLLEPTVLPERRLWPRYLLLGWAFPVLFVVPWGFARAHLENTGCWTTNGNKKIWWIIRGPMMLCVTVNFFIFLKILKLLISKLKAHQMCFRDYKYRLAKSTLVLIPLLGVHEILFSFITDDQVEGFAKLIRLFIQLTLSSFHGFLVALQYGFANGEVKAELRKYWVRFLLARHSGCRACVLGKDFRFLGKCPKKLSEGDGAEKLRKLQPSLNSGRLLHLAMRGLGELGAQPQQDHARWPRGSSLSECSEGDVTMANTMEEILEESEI

B1: GLP2-2G-XTEN fusion protein (protein)
chain: HGDGSFSDEMNTILDNLAARDFINWLIQTKITDGGSPAGSPTSTEEGTSESATPESGPGTSTEPSEGSAPGSPAGSPTSTEEGTSTEPSEGSAPGTSTEPSEGSAPGTSESATPESGPGSEPATSGSETPGSEPATSGSETPGSPAGSPTSTEEGTSESATPESGPGTSTEPSEGSAPGTSTEPSEGSAPGSPAGSPTSTEEGTSTEPSEGSAPGTSTEPSEGSAPGTSESATPESGPGTSTEPSEGSAPGTSESATPESGPGSEPATSGSETPGTSTEPSEGSAPGTSTEPSEGSAPGTSESATPESGPGTSESATPESGPGSPAGSPTSTEEGTSESATPESGPGSEPATSGSETPGTSESATPESGPGTSTEPSEGSAPGTSTEPSEGSAPGTSTEPSEGSAPGTSTEPSEGSAPGTSTEPSEGSAPGTSTEPSEGSAPGSPAGSPTSTEEGTSTEPSEGSAPGTSESATPESGPGSEPATSGSETPGTSESATPESGPGSEPATSGSETPGTSESATPESGPGTSTEPSEGSAPGTSESATPESGPGSPAGSPTSTEEGSPAGSPTSTEEGSPAGSPTSTEEGTSESATPESGPGTSTEPSEGSAPGTSESATPESGPGSEPATSGSETPGTSESATPESGPGSEPATSGSETPGTSESATPESGPGTSTEPSEGSAPGSPAGSPTSTEEGTSESATPESGPGSEPATSGSETPGTSESATPESGPGSPAGSPTSTEEGSPAGSPTSTEEGTSTEPSEGSAPGTSESATPESGPGTSESATPESGPGTSESATPESGPGSEPATSGSETPGSEPATSGSETPGSPAGSPTSTEEGTSTEPSEGSAPGTSTEPSEGSAPGSEPATSGSETPGTSESATPESGPGTSTEPSEGSAPG
Consider B1, for which the calcium flux (FLIPR) in a human GLP-2 receptor-expressing Chem-11 cell line, serial dilutions, EC50 of activation is 380 nM.

The record behind these values is PMC3506575.
